We go through two variants from publication PMC5700101.

B1: Luc-KD (KD–IDL of Polo, amino acids 1–349, N-terminally fused to RLucII), KD^WT [Drosophila] / PBD–GFP (PBD of Polo, amino acids 350–576, C-terminally fused to GFP10) [Drosophila] (parent)
chain 1: MAAKPEDKSTDIPDRLVDINQRKTYKRMRFFGKGGFAKCYEIIDVETDDVFAGKIVSKKLMIKHNQKEKTAQEITIHRSLNHPNIVKFHNYFEDSQNIYIVLELCKKRSMMELHKRRKSITEFECRYYIYQIIQGVKYLHDNRIIHRDLKLGNLFLNDLLHVKIGDFGLATRIEYEGERKKTLCGTPNYIAPEILTKKGHSFEVDIWSIGCVMYTLLVGQPPFETKTLKDTYSKIKKCEYRVPSYLRKPAADMVIAMLQPNPESRPAIGQLLNFEFLKGSKVPMFLPSSCLTMAPRIGSNDTIEDSMHRKPLMEMNGIRPDDTRLESTFLKANLHDAITASAQVCRHSE
chain 2: DYRSDIESLYQQLTNLINGKPRILQGNLGDENTDPAAQPLFWISKWVDYSDKYGFGYQLCDEGIGVMFNDTTKLILLPNQINVHFIDKDGKETYMTTTDYCKSLDKKMKLLSYFKRYMIEHLVKAGANNVNIESDQISRMPHLHSWFRTTCAVVMHLTNGSVQLNFSDHMKLILCPRMSAITYMDQEKNFRTYRFSTIVENGVSKDLYQKIRYAQEKLRKMLEKMFT

The first experiment covers variants of B1. Briefly: BRET. As to conditions: with PBD–GFP (PBD of Polo, amino acids 350–576, C-terminally fused to GFP10) [Drosophila]; live HEK293T cells; fixed amount of Luc-KD vector, increasing PBD–GFP vector; Map205 fragment co-transfected; p-value 0.4037; parent: 0.197. (In BRET a luciferase serves as donor, and the signal depends on an acceptor being close.)
In the case of chain 1 MAAKPEDKSTDIPDRLVDINQRKTYKRMRFFGKGGFAKCYEIIDVETDDVFAGKIVSKKLMIKHNQKEKTAQEITIHRSLNHPNIVKFHNYFEDSQNIYIVLELCKKRSMMELHKRRKSITEFECRYYIYQIIQGVKYLHDNRIIHRDLKLGNLFLNDLLHVKIGDFGLATRIEYEGERKKALCGTPNYIAPEILTKKGHSFEVDIWSIGCVMYTLLVGQPPFETKTLKDTYSKIKKCEYRVPSYLRKPAADMVIAMLQPNPESRPAIGQLLNFEFLKGSKVPMFLPSSCLTMAPRIGSNDTIEDSMHRKPLMEMNGIRPDDTRLESTFLKANLHDAITASAQVCRHSE [chain 1 T182A], the screen value worked out at 0.148 GFP/Luc.

The experiment is the same for the next values; noted with them: with PBD–GFP (PBD of Polo, amino acids 350–576, C-terminally fused to GFP10) [Drosophila]; live HEK293T cells; fixed amount of Luc-KD vector, increasing PBD–GFP vector; Map205 fragment co-transfected; p-value 0.0374; parent: 0.197.
Turning to chain 1 MAAKPEDKSTDIPDRLVDINQRKTYKRMRFFGKGGFAKCYEIIDVETDDVFAGKIVSKKLMIKHNQKEKTAQEITIHRSLNHPNIVKFHNYFEDSQNIYIVLELCKKRSMMELHKRRKSITEFECRYYIYQIIQGVKYLHDNRIIHRDLKLGNLFLNDLLHVKIGDFGLATRIEYEGERKKDLCGTPNYIAPEILTKKGHSFEVDIWSIGCVMYTLLVGQPPFETKTLKDTYSKIKKCEYRVPSYLRKPAADMVIAMLQPNPESRPAIGQLLNFEFLKGSKVPMFLPSSCLTMAPRIGSNDTIEDSMHRKPLMEMNGIRPDDTRLESTFLKANLHDAITASAQVCRHSE [chain 1 T182D], the screen value came to 0.412 GFP/Luc.
